Results from patent publication US10087225B2, “Formulation of MK2 inhibitor peptides” (MOERAE MATRIX, INC., priority 2015, dated 2018).

Assays:
Experiment in all cases: Kinase Profiling Assay
Assay type in all cases: biochemical
Settings in all cases: for % activity: 100 μM
EphB2(h) = biological target: T1, EphB2(h) (Homo sapiens, UniProt P29323)
T1 sequence (P29323 19-1055): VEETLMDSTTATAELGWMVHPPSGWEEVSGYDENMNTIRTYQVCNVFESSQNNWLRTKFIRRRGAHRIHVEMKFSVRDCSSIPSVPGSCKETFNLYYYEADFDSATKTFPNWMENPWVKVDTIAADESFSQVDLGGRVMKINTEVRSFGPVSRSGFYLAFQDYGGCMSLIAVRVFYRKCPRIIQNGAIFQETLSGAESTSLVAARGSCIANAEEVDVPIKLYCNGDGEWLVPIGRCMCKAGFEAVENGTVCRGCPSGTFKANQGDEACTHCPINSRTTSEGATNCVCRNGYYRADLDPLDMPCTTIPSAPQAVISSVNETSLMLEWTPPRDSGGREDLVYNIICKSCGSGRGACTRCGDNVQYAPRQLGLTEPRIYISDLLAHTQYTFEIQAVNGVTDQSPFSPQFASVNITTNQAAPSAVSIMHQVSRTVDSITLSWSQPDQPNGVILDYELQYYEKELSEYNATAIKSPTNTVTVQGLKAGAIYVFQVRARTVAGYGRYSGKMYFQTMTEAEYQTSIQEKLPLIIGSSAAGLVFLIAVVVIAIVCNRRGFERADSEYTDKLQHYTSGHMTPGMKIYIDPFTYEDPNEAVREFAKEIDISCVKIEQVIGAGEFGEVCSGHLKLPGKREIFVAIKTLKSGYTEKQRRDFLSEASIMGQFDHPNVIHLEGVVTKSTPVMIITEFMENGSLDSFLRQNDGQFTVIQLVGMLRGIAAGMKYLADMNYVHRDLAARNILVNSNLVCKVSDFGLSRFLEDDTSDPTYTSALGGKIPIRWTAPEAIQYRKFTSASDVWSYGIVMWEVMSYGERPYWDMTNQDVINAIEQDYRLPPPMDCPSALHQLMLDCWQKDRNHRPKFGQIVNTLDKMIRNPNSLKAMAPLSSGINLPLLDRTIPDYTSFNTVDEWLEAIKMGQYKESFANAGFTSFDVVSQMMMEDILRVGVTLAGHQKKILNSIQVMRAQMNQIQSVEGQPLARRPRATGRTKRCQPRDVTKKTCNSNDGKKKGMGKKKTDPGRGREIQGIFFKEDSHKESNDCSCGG

EphB4(h) = biological target: T2, EphB4(h) (Homo sapiens, UniProt P54760)
T2 sequence (P54760 16-987): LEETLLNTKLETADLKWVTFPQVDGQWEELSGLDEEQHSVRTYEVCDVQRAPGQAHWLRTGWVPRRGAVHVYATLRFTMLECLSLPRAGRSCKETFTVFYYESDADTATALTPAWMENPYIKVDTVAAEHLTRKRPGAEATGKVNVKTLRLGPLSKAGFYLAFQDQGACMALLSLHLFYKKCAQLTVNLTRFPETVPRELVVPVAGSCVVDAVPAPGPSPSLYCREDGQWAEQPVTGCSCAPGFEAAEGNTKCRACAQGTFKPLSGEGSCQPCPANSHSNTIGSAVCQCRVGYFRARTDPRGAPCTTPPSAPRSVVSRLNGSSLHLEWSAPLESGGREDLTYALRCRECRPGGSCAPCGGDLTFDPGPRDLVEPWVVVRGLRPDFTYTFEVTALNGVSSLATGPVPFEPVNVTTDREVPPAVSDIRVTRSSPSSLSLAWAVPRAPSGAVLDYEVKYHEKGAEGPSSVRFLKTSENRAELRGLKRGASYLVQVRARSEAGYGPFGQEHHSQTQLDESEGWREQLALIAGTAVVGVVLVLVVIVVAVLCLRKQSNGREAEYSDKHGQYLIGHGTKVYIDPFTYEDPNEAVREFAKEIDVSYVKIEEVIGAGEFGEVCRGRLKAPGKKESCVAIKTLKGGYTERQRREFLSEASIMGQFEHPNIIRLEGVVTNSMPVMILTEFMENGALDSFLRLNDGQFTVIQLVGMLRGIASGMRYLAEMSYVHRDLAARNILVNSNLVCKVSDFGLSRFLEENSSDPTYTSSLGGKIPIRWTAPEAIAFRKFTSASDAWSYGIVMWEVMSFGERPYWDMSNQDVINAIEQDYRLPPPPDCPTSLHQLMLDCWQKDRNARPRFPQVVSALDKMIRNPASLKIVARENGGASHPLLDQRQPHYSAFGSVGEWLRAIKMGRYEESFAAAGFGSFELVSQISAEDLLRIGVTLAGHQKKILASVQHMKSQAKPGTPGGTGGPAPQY

LOK(h) = LOK(h) (Homo sapiens, UniProt O94804)
Met(Y1248C)(h) = Met(Y1248C)(h) (Homo sapiens, UniProt P08581, Y1230C)
SAPK2a(T106M)(h) = SAPK2a(T106M)(h) (Homo sapiens, UniProt Q16539, T106M)
TSSK1(h) = biological target: T3, TSSK1(h) (Homo sapiens, UniProt Q9BXA7)
T3 sequence (Q9BXA7 1-367): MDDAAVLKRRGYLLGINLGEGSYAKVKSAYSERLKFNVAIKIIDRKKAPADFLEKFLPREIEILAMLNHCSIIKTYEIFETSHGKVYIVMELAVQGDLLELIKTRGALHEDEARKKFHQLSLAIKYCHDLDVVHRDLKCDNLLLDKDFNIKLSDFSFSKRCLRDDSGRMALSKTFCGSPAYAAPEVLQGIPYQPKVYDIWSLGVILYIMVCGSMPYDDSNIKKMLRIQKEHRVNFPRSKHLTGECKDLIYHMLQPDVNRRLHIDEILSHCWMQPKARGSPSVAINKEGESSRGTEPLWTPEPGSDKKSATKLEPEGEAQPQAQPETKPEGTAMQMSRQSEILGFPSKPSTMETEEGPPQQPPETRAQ

SAPK2a(T106M)(h), sequence (Q16539 whole entry T106M): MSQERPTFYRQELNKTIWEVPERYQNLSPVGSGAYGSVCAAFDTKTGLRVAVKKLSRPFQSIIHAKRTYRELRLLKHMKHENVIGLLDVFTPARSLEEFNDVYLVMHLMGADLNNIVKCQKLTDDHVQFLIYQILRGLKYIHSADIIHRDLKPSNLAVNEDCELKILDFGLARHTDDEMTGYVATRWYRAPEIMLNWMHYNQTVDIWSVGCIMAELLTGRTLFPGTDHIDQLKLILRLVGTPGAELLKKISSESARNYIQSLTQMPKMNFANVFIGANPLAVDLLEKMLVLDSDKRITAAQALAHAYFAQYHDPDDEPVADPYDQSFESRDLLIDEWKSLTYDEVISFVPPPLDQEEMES
LOK(h), sequence (O94804 whole entry): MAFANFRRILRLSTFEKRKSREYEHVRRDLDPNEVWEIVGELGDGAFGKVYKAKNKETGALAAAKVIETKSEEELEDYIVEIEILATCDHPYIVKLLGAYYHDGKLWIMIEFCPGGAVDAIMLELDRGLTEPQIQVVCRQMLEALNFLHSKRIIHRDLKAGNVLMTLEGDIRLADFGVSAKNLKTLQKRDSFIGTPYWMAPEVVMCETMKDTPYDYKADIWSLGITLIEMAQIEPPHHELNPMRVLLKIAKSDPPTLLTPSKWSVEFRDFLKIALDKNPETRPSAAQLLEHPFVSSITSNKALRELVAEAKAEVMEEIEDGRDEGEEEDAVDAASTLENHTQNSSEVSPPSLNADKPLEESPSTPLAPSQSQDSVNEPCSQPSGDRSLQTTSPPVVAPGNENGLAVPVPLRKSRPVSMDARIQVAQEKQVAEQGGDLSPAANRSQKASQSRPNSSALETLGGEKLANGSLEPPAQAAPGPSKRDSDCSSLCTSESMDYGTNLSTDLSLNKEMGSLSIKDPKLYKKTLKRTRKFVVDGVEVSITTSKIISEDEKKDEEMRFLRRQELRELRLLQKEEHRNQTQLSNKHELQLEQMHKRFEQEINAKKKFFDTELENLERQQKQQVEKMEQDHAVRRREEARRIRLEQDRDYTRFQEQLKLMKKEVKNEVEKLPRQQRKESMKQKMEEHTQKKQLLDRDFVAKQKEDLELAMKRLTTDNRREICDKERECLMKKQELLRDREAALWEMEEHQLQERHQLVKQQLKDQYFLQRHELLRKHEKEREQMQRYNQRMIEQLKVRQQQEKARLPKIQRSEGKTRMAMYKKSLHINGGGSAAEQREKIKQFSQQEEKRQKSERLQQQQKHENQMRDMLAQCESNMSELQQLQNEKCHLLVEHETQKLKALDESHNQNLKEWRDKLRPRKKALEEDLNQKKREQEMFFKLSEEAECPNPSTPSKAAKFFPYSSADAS

| Substance | activity at 100 µM (EphB2(h)) | activity at 100 µM (EphB4(h)) | activity at 100 µM (LOK(h)) | activity at 100 µM (Met(Y1248C)(h)) | activity at 100 µM (SAPK2a(T106M)(h)) | activity at 100 µM (TSSK1(h)) | % activity (EphB2(h)) | % activity (EphB4(h)) | % activity (LOK(h)) | % activity (Met(Y1248C)(h)) | % activity (SAPK2a(T106M)(h)) | % activity (TSSK1(h)) |
| --- | --- | --- | --- | --- | --- | --- | --- | --- | --- | --- | --- | --- |
| H-YARAAARQARAKALARQLGVAA-OH [MMI-0100] | 68% | 62% | 37% | 77% | 101% | 99% |  |  |  |  |  |  |
| HRRIKAWLKKIKALARQLGVAA (Mammalian) [MMI-0500] |  |  |  |  |  |  | 70% | 38% | 7% | 73% | 32% | 46% |
| YARAAARQARAKALNRQLGVA (Mammalian) [MMI-0200] |  |  |  |  |  |  | 128% | 131% | 67% | 141% | 100% | 98% |
